Laboratory results from patent US11278600B2, “Human alpha-galactosidase variants” (Codexis, Inc., priority 2014, dated 2022).
Residue numbers refer to the chain shown, from its start.

B1: 262 (protein)
chain: LDNGLARTPTMGWLHWERFMCNLDCQEEPDSCISEKLFMEMAELMVSEGWKDAGYEYLCIDDCWMAPQRDSEGRLQADPQRFPHGIRQLANYVHSKGLKFGIYADVGNKTCAGFPGSFGYYDIDAQTFADWGVDLLKFDGCYCDSLENLADGYKHMSLALNRTGRSIVYSCEWPLYMWPFQKPNYTEIRQYCNHWRNFADIDDSWASIKSILDWTSFNQEKIVDVAGPGGWNDPDMLVIGNFGLSWDQQVTQMALWAIMAAPLFMSNDLRHISPQAKALLQDKDVIAINQDPLGKQGYQLRKGDNFEVWERPLSGLAWAVAVINRQEIGGPRSYTIAVASLGKGVACNPACFITQLLPVKRKLGLYEWTSRLKSHVNPTGTVLLQLENTMQMSLKDLL
modifications: Synthetic Polypeptide sequence of Variant No. 262 of mature Human GLA
B2: 264 (protein)
chain: B1 chain with K343D, L365F
modifications: Synthetic Polypeptide sequence of Variant No. 264 of mature Human GLA
B3: 265 (protein)
chain: B1 chain with D247N, K302Q, V322M, L365F
modifications: Synthetic Polypeptide sequence of Variant No. 265 of mature Human GLA
B4: 263 (protein)
chain: B1 chain with L365F, K373R
modifications: Synthetic Polypeptide sequence of Variant No. 263 of mature Human GLA
B5: 266 (protein)
chain: B1 chain with K221T, D247N, K302Q, V322I, K343E, V376I
modifications: Synthetic Polypeptide sequence of Variant No. 266 of mature Human GLA

Experiments:
Type in all cases: biochemical
[1] = HTP-analysis of supernatants pretreated with bovine serum (MUGal hydrolysis); settings: activity of the variant/activity of Rd2BB (SEQ ID NO: 10), yeast culture supernatant
Method in brief: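 Yeast INVSc1 culture supernatants containing secreted GLA variants were mixed with bovine serum (20:80) and held 1 h at 37° C. Serum-treated samples then reacted with MUGal (4 mM stock) in citrate/McIlvaine buffer (pH 4.3/4.8) for 180 min at 37° C., were quenched with sodium carbonate, and read by fluorescence (Ex 355, Em 448 nm).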

[2] = HTP-analysis of yeast culture supernatants, no challenge (MUGal hydrolysis); settings: activity of the variant/activity of Rd2BB (SEQ ID NO: 10), yeast culture supernatant
Method in brief: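 GLA variants were expressed in INVSc1 yeast grown in SD-Ura broth with glucose at 30° C., and culture supernatants were collected after 66-84 h. Supernatant was mixed with McIlvaine buffer pH 4.8 and MUGal (2 mM stock) in 50 mM citrate, 200 mM KCl, pH 4.6, incubated at 37° C. for 30-180 minutes, then quenched with sodium carbonate.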

[3] = HTP-analysis of supernatants pretreated with base (MUGal hydrolysis); settings: challenge at pH 7.6; activity of the variant/activity of Rd2BB (SEQ ID NO: 10); yeast culture supernatant
Method in brief: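 GLA variants secreted from yeast INVSc1; culture supernatants pre-incubated with McIlvaine buffer pH 7.0–8.2 or 200 mM bicarbonate pH 9.1–9.7 at 37° C. for 1–18 h. Residual activity: MUGal (4 mM stock) hydrolysis at pH 4.3–4.8, 37° C., 30–180 min, carbonate quench; fluorescence Ex 355/Em 448 nm.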

[4] = HTP-analysis of supernatants pretreated with acid (MUGal hydrolysis); settings: challenge at pH 4.2; activity of the variant/activity of Rd2BB (SEQ ID NO: 10); yeast culture supernatant
Method in brief: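 GLA variants were secreted from INVSc1 yeast grown 66-84 h at 30° C. in SD-Ura with 2% glucose; supernatants were mixed with McIlvaine buffer pH 3.3-4.3 and held at 37° C. for 1-3 h. Residual activity on MUGal at pH 4.8 was then measured by fluorescence.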

| Molecule | Relative Activity of GLA Variants After Challenge with Serum [1] | Relative Activity of GLA Variants After No Challenge (NC) [2] | Relative Activity of GLA Variants After Challenge at pH 7.6 [3] | Relative Activity of GLA Variants After Challenge at pH 4.2 [4] |
| --- | --- | --- | --- | --- |
| B1 | +++ (+++ = >2.5 relative activity over Rd2BB (SEQ ID NO: 10)) | ++ (++ = 1.5 to 2.5 relative activity over Rd2BB (SEQ ID NO: 10)) | +++ (+++ = >2.5 relative activity over Rd2BB (SEQ ID NO: 10)) | +++ (+++ = >2.5 relative activity over Rd2BB (SEQ ID NO: 10)) |
| B2 | ++ (++ = 1.5 to 2.5 relative activity over Rd2BB (SEQ ID NO: 10)) | ++ (++ = 1.5 to 2.5 relative activity over Rd2BB (SEQ ID NO: 10)) | +++ (+++ = >2.5 relative activity over Rd2BB (SEQ ID NO: 10)) | ++ (++ = 1.5 to 2.5 relative activity over Rd2BB (SEQ ID NO: 10)) |
| B3 | + (+ = 0.5 to 1.5 relative activity over Rd2BB (SEQ ID NO: 10)) | + (+ = 0.5 to 1.5 relative activity over Rd2BB (SEQ ID NO: 10)) | + (+ = 0.5 to 1.5 relative activity over Rd2BB (SEQ ID NO: 10)) | + (+ = 0.5 to 1.5 relative activity over Rd2BB (SEQ ID NO: 10)) |
| B4 | +++ (+++ = >2.5 relative activity over Rd2BB (SEQ ID NO: 10)) | + (+ = 0.5 to 1.5 relative activity over Rd2BB (SEQ ID NO: 10)) | ++ (++ = 1.5 to 2.5 relative activity over Rd2BB (SEQ ID NO: 10)) | ++ (++ = 1.5 to 2.5 relative activity over Rd2BB (SEQ ID NO: 10)) |
| B5 | ++ (++ = 1.5 to 2.5 relative activity over Rd2BB (SEQ ID NO: 10)) | ++ (++ = 1.5 to 2.5 relative activity over Rd2BB (SEQ ID NO: 10)) | +++ (+++ = >2.5 relative activity over Rd2BB (SEQ ID NO: 10)) | ++ (++ = 1.5 to 2.5 relative activity over Rd2BB (SEQ ID NO: 10)) |
